Here are results for two variants from IntAct's records for PubMed 31663853.

The chains are these.
B1: Protein phosphatase 1H (Homo sapiens), Q9ULR3 (parent)
chain: MLTRVKSAVANFMGGIMAGSSGSEHGGGSCGGSDLPLRFPYGRPEFLGLSQDEVECSADHIARPILILKETRRLPWATGYAEVINAGKSTHNEDQASCEVLTVKKKAGAVTSTPNRNSSKRRSSLPNGEGLQLKENSESEGVSCHYWSLFDGHAGSGAAVVASRLLQHHITEQLQDIVDILKNSAVLPPTCLGEEPENTPANSRTLTRAASLRGGVGAPGSPSTPPTRFFTEKKIPHECLVIGALESAFKEMDLQIERERSSYNISGGCTALIVICLLGKLYVANAGDSRAIIIRNGEIIPMSSEFTPETERQRLQYLAFMQPHLLGNEFTHLEFPRRVQRKELGKKMLYRDFNMTGWAYKTIEDEDLKFPLIYGEGKKARVMATIGVTRGLGDHDLKVHDSNIYIKPFLSSAPEVRIYDLSKYDHGSDDVLILATDGLWDVLSNEEVAEAITQFLPNCDPDDPHRYTLAAQDLVMRARGVLKDRGWRISNDRLGSGDDISVYVIPLIHGNKLS

The variants in this experiment derive from B1. The following applies: with rab10_human RAB10, P61026.
rab10_human RAB10, P61026, sequence (P61026 whole entry): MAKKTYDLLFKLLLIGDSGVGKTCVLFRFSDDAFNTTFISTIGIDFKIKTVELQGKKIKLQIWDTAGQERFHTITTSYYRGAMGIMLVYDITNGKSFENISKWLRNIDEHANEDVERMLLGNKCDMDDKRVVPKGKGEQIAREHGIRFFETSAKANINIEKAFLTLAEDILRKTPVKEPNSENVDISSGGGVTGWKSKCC
Regarding MLTRVKSAVANFMGGIMAGSSGSEHGGGSCGGSDLPLRFPYGRPEFLGLSQDEVECSADHIARPILILKETRRLPWATGYAEVINAGKSTHNEDQASCEVLTVKKKAGAVTSTPNRNSSKRRSSLPNGEGLQLKENSESEGVSCHYWSLFDGHAGSGAAVVASRLLQHHITEQLQDIVDILKNSAVLPPTCLGEEPENTPANSRTLTRAASLRGGVGAPGSPSTPPTRFFTEKKIPHECLVIGALESAFKEMDLQIERERSSYNISGGCTALIVICLLGKLYVANAGASRAIIIRNGEIIPMSSEFTPETERQRLQYLAFMQPHLLGNEFTHLEFPRRVQRKELGKKMLYRDFNMTGWAYKTIEDEDLKFPLIYGEGKKARVMATIGVTRGLGDHDLKVHDSNIYIKPFLSSAPEVRIYDLSKYDHGSDDVLILATDGLWDVLSNEEVAEAITQFLPNCDPDDPHRYTLAAQDLVMRARGVLKDRGWRISNDRLGSGDDISVYVIPLIHGNKLS [D288A], the “effect of a mutation on the interaction” value is given as “causing an interaction”.
Turning to MLTRVKSAVANFMGGIMAGSSGSEHGGGSCGGSDLPLRFPYGRPEFLGLSQDEVECSADHIARPILILKETRRLPWATGYAEVINAGKSTHNEDQASCEVLTVKKKAGAVTSTPNRNSSKRRSSLPNGEGLQLKENSESEGVSCHYWSLFDGHAGSGAAVVASRLLQHHITEQLQDIVDILKNSAVLPPTCLGEEPENTPANSRTLTRAASLRGGVGAPGSPSTPPTRFFTEKKIPHECLVIGALESAFKEMDLQIERERSSYNISGGCTALIVICLLGKLYVANAGESRAIIIRNGEIIPMSSEFTPETERQRLQYLAFMQPHLLGNEFTHLEFPRRVQRKELGKKMLYRDFNMTGWAYKTIEDEDLKFPLIYGEGKKARVMATIGVTRGLGDHDLKVHDSNIYIKPFLSSAPEVRIYDLSKYDHGSDDVLILATDGLWDVLSNEEVAEAITQFLPNCDPDDPHRYTLAAQDLVMRARGVLKDRGWRISNDRLGSGDDISVYVIPLIHGNKLS [D288E], the “effect of a mutation on the interaction” value was “causing an interaction”.
